This note sets out measurements from PMC4120848.

Like-named read-outs stand apart in the source and are kept apart here.

What all share (assay): mMAPS
Test [1] addresses endogenous EGFR (HeLa cells) (human (endogenous in HeLa)) (UniProt P00533).
In test [2] the target is endogenous EGFR phosphorylated at Tyr1068 (HeLa cells) (human (endogenous in HeLa)) (UniProt P00533).
For test [3], the target named is endogenous EGFR (HeLa cells) (human (endogenous in HeLa)) (UniProt P00533). This is another data set of the same source.
The target in test [4] is endogenous EGFR phosphorylated at Tyr1068 (HeLa cells) (human (endogenous in HeLa)) (UniProt P00533). The source holds these as a separate data set.

Take A647-conjugated EGF (ligand): the percent of total detected EGFR events that are EGF-EGFR in test [1] came to 4.35%; in test [3] it was 3.3%. Also, the percent of total detected EGFR events that are EGF-EGFR-pTyr1068 was found to be 2.64% in test [2] and 1.27% in test [4].
